How the values were obtained:
[1] = system: cervical cancer cells Hela; test: CCK8 cell viability detection, Hela; format: cell-based, human; settings: CCK8, 24 h treatment; read-out: IC50, inhibition of Hela cells
Description: CCK8 cell viability detection: cell suspension was seeded in 96-well plates at a concentration of 5×10^4 cells/ml (100 μL/well). The plates were placed in the incubator for pre-culture (at 37° C., 5% CO2), and control and protein agents were added to each well 24 h after seeding. The plates were then placed in the incubator for 24 h, followed by addition of 10 μL CCK8 solution into each well and incubation of the plates in the incubator for 0.5-2 h before the absorbance measurement at 450 nm using a microplate reader.
Analysis of effect of GhJAZ1 protein on the cell cycle and apoptosis of tumor cells

NMYC = target: T1, NMYC (Homo sapiens, UniProt P04198); test: CO-IP with NMYC in HEK293 cells; format: binding
T1 construct: with the full length of c-Myc and NMYC, respectively; expressed in transfected cells; host or cells: yeast Y2HGold
T1 sequence (P04198 1-464): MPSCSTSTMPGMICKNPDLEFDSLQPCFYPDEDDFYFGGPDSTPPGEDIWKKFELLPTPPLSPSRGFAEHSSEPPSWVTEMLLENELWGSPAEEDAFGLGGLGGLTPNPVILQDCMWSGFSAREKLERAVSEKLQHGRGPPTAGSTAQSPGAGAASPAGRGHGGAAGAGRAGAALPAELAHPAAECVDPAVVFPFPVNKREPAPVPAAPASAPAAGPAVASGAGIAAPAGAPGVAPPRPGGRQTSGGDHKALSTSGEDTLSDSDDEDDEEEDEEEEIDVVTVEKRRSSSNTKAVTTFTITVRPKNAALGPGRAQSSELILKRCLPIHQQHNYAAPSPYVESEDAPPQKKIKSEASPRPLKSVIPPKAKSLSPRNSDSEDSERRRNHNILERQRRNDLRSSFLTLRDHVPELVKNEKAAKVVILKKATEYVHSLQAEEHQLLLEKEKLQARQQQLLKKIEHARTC
Description: Steps of method of CO-IP experiment: Non-denaturing lysate was added to 293T cell culture plate (Pricella, Cat. No.: CL-0005), and the cells were completely lysed at 4° C. The lysate was centrifuged at 12,000 rpm for 10 min and the supernatant was collected. The corresponding antibody was added to the obtained non-denatured protein solution, which was incubated overnight at 4° C. Pierce™ protein A/G magnetic agarose (Thermo Fisher Scientific, Inc.) were washed with lysis buffer, followed by addition pre-treated beads to the cell lysate, and incubation at room temperature for 2 hours. The mixture was centrifuged at 4° C., 2,500 rpm for 5 min with supernatant removed, and the agarose beads were washed 5 times with 1 ml of lysis buffer. An appropriate amount of protein loading buffer was added to the pellet, and the sample was incubated in water bath at 100° C. for 10 min. The band of interest was detected by Western blotting.
Immunoprecipitation method (method of the experiment as Example 3) was used.

c-Myc-215aa = target: T2, c-Myc-215aa (Homo sapiens, UniProt P01106); test: Yeast two hybrid and LUC with c-Myc truncated to first 215 amino acids; format: binding
T2 construct: expressed in transfected cells
Text: […]

T2 sequence (P01106 1-215): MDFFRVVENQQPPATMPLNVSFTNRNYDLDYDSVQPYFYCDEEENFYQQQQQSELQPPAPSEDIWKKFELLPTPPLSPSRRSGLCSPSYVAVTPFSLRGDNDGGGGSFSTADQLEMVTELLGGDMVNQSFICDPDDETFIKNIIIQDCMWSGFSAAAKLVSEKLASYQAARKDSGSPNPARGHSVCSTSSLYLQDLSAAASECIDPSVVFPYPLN

B1: GhJAZ1: cotton JAZ1 protein, gene number Gh_A05G0260, sequence SEQ ID No. 4; prokaryotically expressed with His tag, about 30 KD (protein)
chain: MSSCSESTAMKPARSPEKPSFAQTCNLLSQYLKEKGSFGDLSLGMTCNVEANGTPVVPPPTMNLFPLNDKSDDVCGRNGGNPKNLTSMDLFPQQAGLASKDDSPNKLEPQTAPMTIFYGGQVIVFNDFPANKAKEIMLLASNSSSQSNNSFNPIPFTSSIARSPIESSIGVPPTSKPVHPAQRAVPGDLPIARRASLHRFLEKRKDRITAKAPYQINNSAAAPSLSGDNKSWLGLAAQSP
modifications: His tag
notes: prokaryotically expressed with His tag, about 30 KD
[1]
  IC50: 553 nM
NMYC
  interaction with NMYC: interacted
c-Myc-215aa
  interaction with first 215 amino acids truncated c-Myc: strong interactions

Reference: patent publication US20240279288A1, “APPLICATION OF PLANT JAZ PROTEINS AND DERIVED POLYPEPTIDES IN PREVENTION AND TREATMENT OF HUMAN AND ANIMAL TUMORS” (ANYANG INSTITUTE OF SINO-COTTON INDUSTRY INNOVATION, priority 2021, published 2024)
